T1: human PAC1 receptor (human, UniProt P41586 24-468)
T1 sequence: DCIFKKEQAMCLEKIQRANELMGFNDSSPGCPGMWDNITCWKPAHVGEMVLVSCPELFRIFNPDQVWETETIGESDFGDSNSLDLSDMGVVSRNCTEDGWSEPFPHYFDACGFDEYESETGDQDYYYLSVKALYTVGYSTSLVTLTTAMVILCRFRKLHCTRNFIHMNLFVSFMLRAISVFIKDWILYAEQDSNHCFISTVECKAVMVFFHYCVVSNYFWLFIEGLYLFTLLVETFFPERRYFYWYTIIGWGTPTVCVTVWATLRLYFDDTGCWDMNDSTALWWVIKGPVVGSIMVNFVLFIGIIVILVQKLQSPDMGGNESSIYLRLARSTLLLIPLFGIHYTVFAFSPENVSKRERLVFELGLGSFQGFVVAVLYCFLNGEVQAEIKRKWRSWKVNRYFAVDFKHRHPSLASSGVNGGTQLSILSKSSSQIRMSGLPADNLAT


What was measured:
human PAC1 receptor = target: T1, human PAC1 receptor; test: cell-based or functional assay
human CGRP receptor = human CGRP receptor (human, UniProt Q16602 23-461; O60894 27-148); test: cell-based or functional assay
Sequence of human CGRP receptor (Q16602 23-461 limits assumed, chain 1 of 2): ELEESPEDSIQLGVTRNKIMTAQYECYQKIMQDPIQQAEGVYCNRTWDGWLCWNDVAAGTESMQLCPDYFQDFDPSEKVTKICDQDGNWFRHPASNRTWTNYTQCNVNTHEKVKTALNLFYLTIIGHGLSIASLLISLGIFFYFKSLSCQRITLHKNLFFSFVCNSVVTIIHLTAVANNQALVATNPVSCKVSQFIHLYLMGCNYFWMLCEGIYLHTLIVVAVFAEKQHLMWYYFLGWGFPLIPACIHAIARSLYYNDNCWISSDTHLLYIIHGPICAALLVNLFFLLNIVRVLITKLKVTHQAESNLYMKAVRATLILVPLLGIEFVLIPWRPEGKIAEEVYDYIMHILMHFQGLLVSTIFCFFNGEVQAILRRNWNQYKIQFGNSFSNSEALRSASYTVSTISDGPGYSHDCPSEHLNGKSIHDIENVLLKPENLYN
Sequence of human CGRP receptor (O60894 27-148 limits assumed, chain 2 of 2): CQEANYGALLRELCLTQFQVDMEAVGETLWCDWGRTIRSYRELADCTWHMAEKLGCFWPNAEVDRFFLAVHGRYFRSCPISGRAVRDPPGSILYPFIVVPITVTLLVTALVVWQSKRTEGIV

Binder | Fold-improvement over 29G4v22 Ab (human PAC1 receptor) [fold] | IC50 (human PAC1 receptor) [nM] | Fold-improvement over 4E4 Ab (human CGRP receptor) [fold] | IC50 (human CGRP receptor) [nM]
iPS:454759 (bispecific antibody, human IgG1, kappa, lambda, N297G) light 1: QSVLTQPPSVSAAPGQKVTISCSGSYSNIGRYSVSWYQQLPGTAPKLLIYDNNKRPSGIPDRFSGSKSGTSATLGITGLQTGDEADYYCGTWDSRLSAVVFGGGTKLTVLGQPKAAPSVTLFPPSSEELQANKATLVCLISDFYPGAVTVAWKADSSPVKAGVETTTPSKQSNNKYAAKSYLSLTPEQWKSHRSYSCQVTHEGSTVEKTVAPTECS heavy 1: QVQLVESGGGVVQPGRSLRLSCAASGFTFSSFGMHWVRQAPGKGLEWVAVISFDGSIKYSVDSVKGRFTISRDNSKNTLFLQMNSLRAEDTAVYYCARDRLNYYESSGYYHYKYYGMAVWGQGTTVTVSSASTKGPSVFPLAPSSKSTSGGTAALGCLVKDYFPEPVTVSWNSGALTSGVHTFPAVLQSSGLYSLESVVTVPSSSLGTQTYICNVNHKPSNTKVDKKVEPKSCDKTHTCPPCPAPELLGGPSVFLFPPKPKDTLMISRTPEVTCVVVDVSHEDPEVKFNWYVDGVEVHNAKTKPCEEQYGSTYRCVSVLTVLHQDWLNGKEYKCKVSNKALPAPIEKTISKAKGQPREPQVYTLPPSRKKMTKNQVSLTCLVKGFYPSDIAVEWESNGQPENNYKTTPPVLKSDGSFFLYSKLTVDKSRWQQGNVFSCSVMHEALHNHYTQKSLSLSPGK light 2: EIVLTQSPATLSLSPGERATLSCRASKSVGRSLHWYQQKPGQAPRLLIKYASQSLSGIPARFSGSGSGTDFTLTISSLEPEDFAVYYCHQSSRLPFTFGPGTKVDIKRTVAAPSVFIFPPSDEQLKSGTASVVCLLNNFYPREAKVQWKVDNALQSGNSQESVTEQDSKDSTYSLESTLTLSKADYEKHKVYACEVTHQGLSSPVTKSFNRGEC heavy 2: not shown | 8.5 | 0.74 | 1.5 | 0.39
iPS:454757 (bispecific antibody, human IgG1, kappa, lambda, N297G) light 1: QSVLTQPPSVSAAPGQKVTISCSGSYSNIGRYSVSWYQQLPGTAPKLLIYDNNKRPSGIPDRFSGSKSGTSATLGITGLQTGDEADYYCGTWDSRLSAVVFGGGTKLTVLGQPKAAPSVTLFPPSSEELQANKATLVCLISDFYPGAVTVAWKADSSPVKAGVETTTPSKQSNNKYAAKSYLSLTPEQWKSHRSYSCQVTHEGSTVEKTVAPTECS heavy 1: QVQLVESGGGVVQPGRSLRLSCAASGFTFSSFGMHWVRQAPGKGLEWVAVISFDGSIKYSVDSVKGRFTISRDNSKNTLFLQMNSLRAEDTAVYYCARDRLNYYESSGYYHYKYYGMAVWGQGTTVTVSSASTKGPSVFPLAPSSKSTSGGTAALGCLVKDYFPEPVTVSWNSGALTSGVHTFPAVLQSSGLYSLESVVTVPSSSLGTQTYICNVNHKPSNTKVDKKVEPKSCDKTHTCPPCPAPELLGGPSVFLFPPKPKDTLMISRTPEVTCVVVDVSHEDPEVKFNWYVDGVEVHNAKTKPCEEQYGSTYRCVSVLTVLHQDWLNGKEYKCKVSNKALPAPIEKTISKAKGQPREPQVYTLPPSRKKMTKNQVSLTCLVKGFYPSDIAVEWESNGQPENNYKTTPPVLKSDGSFFLYSKLTVDKSRWQQGNVFSCSVMHEALHNHYTQKSLSLSPGK light 2: EIVLTQSPATLSLSPGERATLSCRASKSVGRSLHWYQQKPGQAPRLLIKYASQSLSGIPARFSGSGSGTDFTLTISSLEPEDFAVYYCHQSSRLPFTFGPGTKVDIKRTVAAPSVFIFPPSDEQLKSGTASVVCLLNNFYPREAKVQWKVDNALQSGNSQESVTEQDSKDSTYSLESTLTLSKADYEKHKVYACEVTHQGLSSPVTKSFNRGEC heavy 2: not shown | 9.2 | 0.68 | 1.4 | 0.43
iPS:454755 (bispecific antibody, human IgG1, kappa, lambda, N297G) light 1: QSVLTQPPSVSAAPGQKVTISCSGSYSNIGRYSVSWYQQLPGTAPKLLIYDNNKRPSGIPDRFSGSKSGTSATLGITGLQTGDEADYYCGTWDSRLSAVVFGGGTKLTVLGQPKAAPSVTLFPPSSEELQANKATLVCLISDFYPGAVTVAWKADSSPVKAGVETTTPSKQSNNKYAAKSYLSLTPEQWKSHRSYSCQVTHEGSTVEKTVAPTECS heavy 1: QVQLVESGGGVVQPGRSLRLSCAASGFTFSSFGMHWVRQAPGKGLEWVAVISFDGSIKYSVDSVKGRFTISRDNSKNTLFLQMNSLRAEDTAVYYCARDRLNYYESSGYYHYKYYGMAVWGQGTTVTVSSASTKGPSVFPLAPSSKSTSGGTAALGCLVKDYFPEPVTVSWNSGALTSGVHTFPAVLQSSGLYSLESVVTVPSSSLGTQTYICNVNHKPSNTKVDKKVEPKSCDKTHTCPPCPAPELLGGPSVFLFPPKPKDTLMISRTPEVTCVVVDVSHEDPEVKFNWYVDGVEVHNAKTKPCEEQYGSTYRCVSVLTVLHQDWLNGKEYKCKVSNKALPAPIEKTISKAKGQPREPQVYTLPPSRKKMTKNQVSLTCLVKGFYPSDIAVEWESNGQPENNYKTTPPVLKSDGSFFLYSKLTVDKSRWQQGNVFSCSVMHEALHNHYTQKSLSLSPGK light 2: EIVLTQSPATLSLSPGERATLSCRASKSVGRSLHWYQQKPGQAPRLLIKYASQSLSGIPARFSGSGSGTDFTLTISSLEPEDFAVYYCHQSSRLPFTFGPGTKVDIKRTVAAPSVFIFPPSDEQLKSGTASVVCLLNNFYPREAKVQWKVDNALQSGNSQESVTEQDSKDSTYSLESTLTLSKADYEKHKVYACEVTHQGLSSPVTKSFNRGEC heavy 2: not shown | 9.2 | 0.69 | 1.8 | 0.27
iPS:454751 (bispecific antibody, human IgG1, kappa, lambda, N297G) light 1: QSVLTQPPSVSAAPGQKVTISCSGSYSNIGRYSVSWYQQLPGTAPKLLIYDNNKRPSGIPDRFSGSKSGTSATLGITGLQTGDEADYYCGTWDSRLSAVVFGGGTKLTVLGQPKAAPSVTLFPPSSEELQANKATLVCLISDFYPGAVTVAWKADSSPVKAGVETTTPSKQSNNKYAAKSYLSLTPEQWKSHRSYSCQVTHEGSTVEKTVAPTECS heavy 1: QVQLVESGGGVVQPGRSLRLSCAASGFTFSSFGMHWVRQAPGKGLEWVAVISFDGSIKYSVDSVKGRFTISRDNSKNTLFLQMNSLRAEDTAVYYCARDRLNYYESSGYYHYKYYGMAVWGQGTTVTVSSASTKGPSVFPLAPSSKSTSGGTAALGCLVKDYFPEPVTVSWNSGALTSGVHTFPAVLQSSGLYSLESVVTVPSSSLGTQTYICNVNHKPSNTKVDKKVEPKSCDKTHTCPPCPAPELLGGPSVFLFPPKPKDTLMISRTPEVTCVVVDVSHEDPEVKFNWYVDGVEVHNAKTKPCEEQYGSTYRCVSVLTVLHQDWLNGKEYKCKVSNKALPAPIEKTISKAKGQPREPQVYTLPPSRKKMTKNQVSLTCLVKGFYPSDIAVEWESNGQPENNYKTTPPVLKSDGSFFLYSKLTVDKSRWQQGNVFSCSVMHEALHNHYTQKSLSLSPGK light 2: EIVLTQSPATLSLSPGERATLSCRASKSVGRSLHWYQQKPGQAPRLLIKYASQSLSGIPARFSGSGSGTDFTLTISSLEPEDFAVYYCHQSSRLPFTFGPGTKVDIKRTVAAPSVFIFPPSDEQLKSGTASVVCLLNNFYPREAKVQWKVDNALQSGNSQESVTEQDSKDSTYSLESTLTLSKADYEKHKVYACEVTHQGLSSPVTKSFNRGEC heavy 2: not shown | 12.2 | 0.52 | 1.2 | 0.43

Results, then the binder that gave them:

Fold-improvement over 29G4v22 Ab (human PAC1 receptor) [fold] | IC50 (human PAC1 receptor) [nM] | Fold-improvement over 4E4 Ab (human CGRP receptor) [fold] | IC50 (human CGRP receptor) [nM] | Binder
7.5 | 0.83 | 1.4 | 0.41 | iPS:454749 (bispecific antibody, human IgG1, kappa, lambda, N297G) light 1: QSVLTQPPSVSAAPGQKVTISCSGSYSNIGRYSVSWYQQLPGTAPKLLIYDNNKRPSGIPDRFSGSKSGTSATLGITGLQTGDEADYYCGTWDSRLSAVVFGGGTKLTVLGQPKAAPSVTLFPPSSEELQANKATLVCLISDFYPGAVTVAWKADSSPVKAGVETTTPSKQSNNKYAAKSYLSLTPEQWKSHRSYSCQVTHEGSTVEKTVAPTECS heavy 1: QVQLVESGGGVVQPGRSLRLSCAASGFTFSSFGMHWVRQAPGKGLEWVAVISFDGSIKYSVDSVKGRFTISRDNSKNTLFLQMNSLRAEDTAVYYCARDRLNYYESSGYYHYKYYGMAVWGQGTTVTVSSASTKGPSVFPLAPSSKSTSGGTAALGCLVKDYFPEPVTVSWNSGALTSGVHTFPAVLQSSGLYSLESVVTVPSSSLGTQTYICNVNHKPSNTKVDKKVEPKSCDKTHTCPPCPAPELLGGPSVFLFPPKPKDTLMISRTPEVTCVVVDVSHEDPEVKFNWYVDGVEVHNAKTKPCEEQYGSTYRCVSVLTVLHQDWLNGKEYKCKVSNKALPAPIEKTISKAKGQPREPQVYTLPPSRKKMTKNQVSLTCLVKGFYPSDIAVEWESNGQPENNYKTTPPVLKSDGSFFLYSKLTVDKSRWQQGNVFSCSVMHEALHNHYTQKSLSLSPGK light 2: EIVLTQSPATLSLSPGERATLSCRASKSVGRSLHWYQQKPGQAPRLLIKYASQSLSGIPARFSGSGSGTDFTLTISSLEPEDFAVYYCHQSSRLPFTFGPGTKVDIKRTVAAPSVFIFPPSDEQLKSGTASVVCLLNNFYPREAKVQWKVDNALQSGNSQESVTEQDSKDSTYSLESTLTLSKADYEKHKVYACEVTHQGLSSPVTKSFNRGEC heavy 2: not shown
10.4 | 0.61 | 1.3 | 0.37 | iPS:454753 (bispecific antibody, human IgG1, kappa, lambda, N297G) light 1: QSVLTQPPSVSAAPGQKVTISCSGSYSNIGRYSVSWYQQLPGTAPKLLIYDNNKRPSGIPDRFSGSKSGTSATLGITGLQTGDEADYYCGTWDSRLSAVVFGGGTKLTVLGQPKAAPSVTLFPPSSEELQANKATLVCLISDFYPGAVTVAWKADSSPVKAGVETTTPSKQSNNKYAAKSYLSLTPEQWKSHRSYSCQVTHEGSTVEKTVAPTECS heavy 1: QVQLVESGGGVVQPGRSLRLSCAASGFTFSSFGMHWVRQAPGKGLEWVAVISFDGSIKYSVDSVKGRFTISRDNSKNTLFLQMNSLRAEDTAVYYCARDRLNYYESSGYYHYKYYGMAVWGQGTTVTVSSASTKGPSVFPLAPSSKSTSGGTAALGCLVKDYFPEPVTVSWNSGALTSGVHTFPAVLQSSGLYSLESVVTVPSSSLGTQTYICNVNHKPSNTKVDKKVEPKSCDKTHTCPPCPAPELLGGPSVFLFPPKPKDTLMISRTPEVTCVVVDVSHEDPEVKFNWYVDGVEVHNAKTKPCEEQYGSTYRCVSVLTVLHQDWLNGKEYKCKVSNKALPAPIEKTISKAKGQPREPQVYTLPPSRKKMTKNQVSLTCLVKGFYPSDIAVEWESNGQPENNYKTTPPVLKSDGSFFLYSKLTVDKSRWQQGNVFSCSVMHEALHNHYTQKSLSLSPGK light 2: EIVLTQSPATLSLSPGERATLSCRASKSVGRSLHWYQQKPGQAPRLLIKYASQSLSGIPARFSGSGSGTDFTLTISSLEPEDFAVYYCHQSSRLPFTFGPGTKVDIKRTVAAPSVFIFPPSDEQLKSGTASVVCLLNNFYPREAKVQWKVDNALQSGNSQESVTEQDSKDSTYSLESTLTLSKADYEKHKVYACEVTHQGLSSPVTKSFNRGEC heavy 2: not shown
